Assay results as given in article PMC2188260.
Like-named read-outs stand apart in the source and are kept apart here.

Key:
Assay in all cases: co-IP
[1] = biological target: human plasma gelsolin (human) (UniProt P06396)
[2] = biological target: gelsolin of rabbit lung macrophages (rabbit (endogenous in lung macrophages))
[3] = biological target: gelsolin of rabbit lung macrophages (rabbit (endogenous in lung macrophages)); remark: listed apart in the source
[4] = biological target: gelsolin of rabbit lung macrophages (rabbit (endogenous in lung macrophages)); remark: listed apart in the source

human plasma gelsolin (human), sequence (P06396 28-782): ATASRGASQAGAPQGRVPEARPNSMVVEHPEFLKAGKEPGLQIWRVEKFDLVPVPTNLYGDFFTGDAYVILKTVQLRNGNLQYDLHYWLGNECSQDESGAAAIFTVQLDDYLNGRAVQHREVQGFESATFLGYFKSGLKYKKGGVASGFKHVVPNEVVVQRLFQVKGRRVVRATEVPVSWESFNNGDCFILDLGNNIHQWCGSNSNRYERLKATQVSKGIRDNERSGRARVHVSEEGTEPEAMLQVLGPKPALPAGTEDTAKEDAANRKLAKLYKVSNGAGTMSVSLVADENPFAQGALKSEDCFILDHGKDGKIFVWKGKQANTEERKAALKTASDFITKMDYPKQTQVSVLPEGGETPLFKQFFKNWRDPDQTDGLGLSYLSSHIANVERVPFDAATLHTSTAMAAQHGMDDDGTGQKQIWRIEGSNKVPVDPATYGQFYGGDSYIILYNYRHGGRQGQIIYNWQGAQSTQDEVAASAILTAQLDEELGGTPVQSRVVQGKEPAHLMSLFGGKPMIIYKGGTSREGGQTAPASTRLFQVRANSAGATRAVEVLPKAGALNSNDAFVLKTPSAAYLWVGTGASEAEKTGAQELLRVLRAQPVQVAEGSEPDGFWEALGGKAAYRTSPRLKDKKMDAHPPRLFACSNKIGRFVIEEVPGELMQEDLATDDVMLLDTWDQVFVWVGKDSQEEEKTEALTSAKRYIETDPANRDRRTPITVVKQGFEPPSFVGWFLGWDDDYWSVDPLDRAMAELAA

## rabbit skeletal muscle actin (from UniProt P68135 1-377) (natural protein)
[1]
  stoichiometry N (actin per gelsolin): 1

## actin of rabbit lung macrophages (from UniProt P29751 1-375) (natural protein)
[2]
  molar ratio of actin to gelsolin on the beads (actin per gelsolin): 0.5
  percent of gelsolin complexed with actin: 50%
  percent of gelsolin in the EGTA-resistant complex (cells in suspension, 0 min): 20%
  percent of gelsolin in the EGTA-resistant complex (cells in suspension, 30 min): 90%
  percent of total gelsolin complexed to actin (1 uM ionomycin, 30 s): 80%
  percent of total gelsolin complexed to actin (before ionomycin): 50%
  percentage of gelsolin in an EGTA-resistant complex (DMSO, experiment 1): 32%
  percentage of gelsolin in an EGTA-resistant complex (DMSO, experiment 2): 34%
  percentage of gelsolin in an EGTA-resistant complex (DMSO, experiment 3): 51%
  percentage of gelsolin in an EGTA-resistant complex (DMSO, experiment 4): 35%
  percentage of gelsolin in an EGTA-resistant complex (DMSO, mean value): 38%
  percentage of gelsolin in an EGTA-resistant complex (FMLP, experiment 1): 23%
  percentage of gelsolin in an EGTA-resistant complex (FMLP, experiment 2): 24%
  percentage of gelsolin in an EGTA-resistant complex (FMLP, experiment 3): 25%
  percentage of gelsolin in an EGTA-resistant complex (FMLP, experiment 4): 26%
  percentage of gelsolin in an EGTA-resistant complex (FMLP, mean value): 25%
  percentage of gelsolin in an EGTA-resistant complex (no addition, experiment 1): 43%
  percentage of gelsolin in an EGTA-resistant complex (no addition, experiment 2): 40%
  percentage of gelsolin in an EGTA-resistant complex (no addition, experiment 3): 51%
  percentage of gelsolin in an EGTA-resistant complex (no addition, experiment 4): 47%
  percentage of gelsolin in an EGTA-resistant complex (no addition, mean value): 45%
[3]
  molar ratio of actin to gelsolin on the beads (actin per gelsolin): 1
  percent of gelsolin complexed with actin: 100%
[4]
  molar ratio of actin to gelsolin on the beads (actin per gelsolin): 4
